Where no end group is shown, it is not given here.
Target: T1, human corticotrophin releasing hormone receptor type 2 (CRHR2) (human, UniProt Q13324 1-411)
T1 sequence (looked up): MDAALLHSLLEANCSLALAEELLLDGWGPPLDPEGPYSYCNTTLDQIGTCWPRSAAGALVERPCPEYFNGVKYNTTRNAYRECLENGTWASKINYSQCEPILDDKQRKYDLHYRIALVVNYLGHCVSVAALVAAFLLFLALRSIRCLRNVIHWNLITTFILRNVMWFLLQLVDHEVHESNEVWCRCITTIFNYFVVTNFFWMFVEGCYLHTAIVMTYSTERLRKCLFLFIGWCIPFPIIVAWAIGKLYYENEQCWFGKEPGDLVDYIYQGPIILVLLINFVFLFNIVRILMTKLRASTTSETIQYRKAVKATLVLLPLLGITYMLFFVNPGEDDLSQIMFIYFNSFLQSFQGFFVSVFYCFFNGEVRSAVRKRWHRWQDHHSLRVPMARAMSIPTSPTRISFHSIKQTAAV
Test: cell-based or functional assay

B1: Cys-variant stresscopin-like peptide SEQ ID NO: 29 (peptide)
peptide: TKFTLSLDVPTNIMNLLFNIAKAKNLRCQAAANAHLMAQI-NH2
- Log DR: 0 log10
- pA50: 9.47 -log10(M)

B2: Cys-variant stresscopin-like peptide SEQ ID NO: 39 (peptide)
peptide: TKFTLSLDVPTNIMNLLFNIAKAKNLRAQAAANAHLMCQI-NH2
- Log DR: 0.41 log10
- pA50: 9.21 -log10(M)

B3: Cys-variant stresscopin-like peptide SEQ ID NO: 20 (peptide)
peptide: TKFTLSLDVPTNIMNLLFCIAKAKNLRAQAAANAHLMAQI-NH2
- Log DR: 0.52 log10
- pA50: 9 -log10(M)

B4: Cys-variant stresscopin-like peptide SEQ ID NO: 41 (peptide)
peptide: TKFTLSLDVPTNIMNLLFNIAKAKNLRAQAAANAHLMAQC-NH2
- Log DR: 2.07 log10
- pA50: 7.45 -log10(M)

B5: Cys-variant stresscopin-like peptide SEQ ID NO: 19 (peptide)
peptide: TKFTLSLDVPTNIMNLLCNIAKAKNLRAQAAANAHLMAQI-NH2
- Log DR: 1.67 log10
- pA50: 8.01 -log10(M)

B6: Cys-variant stresscopin-like peptide SEQ ID NO: 38 (peptide)
peptide: TKFTLSLDVPTNIMNLLFNIAKAKNLRAQAAANAHLCAQI-NH2
- Log DR: > 2.95 log10
- pA50: ~6.67 -log10(M)

B7: Cys-variant stresscopin-like peptide SEQ ID NO: 34 (peptide)
peptide: TKFTLSLDVPTNIMNLLFNIAKAKNLRAQAAACAHLMAQI-NH2
- Log DR: > 3.19 log10
- pA50: ~6.32 -log10(M)

B8: Cys-variant stresscopin-like peptide SEQ ID NO: 23 (peptide)
peptide: TKFTLSLDVPTNIMNLLFNIACAKNLRAQAAANAHLMAQI-NH2
- Log DR: 1.13 log10
- pA50: 8.55 -log10(M)

B9: Cys-variant stresscopin-like peptide SEQ ID NO: 37 (peptide)
peptide: TKFTLSLDVPTNIMNLLFNIAKAKNLRAQAAANAHCMAQI-NH2
- Log DR: 1.05 log10
- pA50: 8.58 -log10(M)

B10: Cys-variant stresscopin-like peptide SEQ ID NO: 27 (peptide)
peptide: TKFTLSLDVPTNIMNLLFNIAKAKNCRAQAAANAHLMAQI-NH2
- Log DR: 0.76 log10
- pA50: 8.76 -log10(M)

B11: Cys-variant stresscopin-like peptide SEQ ID NO: 31 (peptide)
peptide: TKFTLSLDVPTNIMNLLFNIAKAKNLRAQCAANAHLMAQI-NH2
- Log DR: 1.61 log10
- pA50: 8.02 -log10(M)

B12: Cys-variant stresscopin-like peptide SEQ ID NO: 22 (peptide)
peptide: TKFTLSLDVPTNIMNLLFNICKAKNLRAQAAANAHLMAQI-NH2
- Log DR: 0.52 log10
- pA50: 9.17 -log10(M)

B13: Cys-variant stresscopin-like peptide SEQ ID NO: 28 (peptide)
peptide: TKFTLSLDVPTNIMNLLFNIAKAKNLCAQAAANAHLMAQI-NH2
- Log DR: 1.61 log10
- pA50: 9.36 -log10(M)

B14: Cys-variant stresscopin-like peptide SEQ ID NO: 21 (peptide)
peptide: TKFTLSLDVPTNIMNLLFNCAKAKNLRAQAAANAHLMAQI-NH2
- Log DR: 0.77 log10
- pA50: 8.75 -log10(M)

B15: Pegylated Cys-variant stresscopin-like peptide with NES linker and PEG about 20 kDa SEQ ID NO: 71 (peptide)
peptide: TKFTLSLDVPTNIMNLCFNIAKAKNLRAQAAANAHLMAQI
modifications: NES-PEG (about 20 kDa) on Cys 17; C-terminal amide (-NH2)
- Log DR: ~2.26 log10
- pA50: ~7.35 -log10(M)

B16: Pegylated Cys-variant stresscopin-like peptide with NES linker and PEG about 20 kDa SEQ ID NO: 87 (peptide)
peptide: TKFTLSLDVPTNIMNLLFNIAKAKNLRAQAAACAHLMAQI
modifications: NES-PEG (about 20 kDa) on Cys 33; C-terminal amide (-NH2)
- Log DR: > 3.68 log10
- pA50: ~6 -log10(M)

B17: Pegylated Cys-variant stresscopin-like peptide with NES linker and PEG about 20 kDa SEQ ID NO: 91 (peptide)
peptide: TKFTLSLDVPTNIMNLLFNIAKAKNLRAQAAANAHLCAQI
modifications: NES-PEG (about 20 kDa) on Cys 37; C-terminal amide (-NH2)
- Log DR: > 3.43 log10
- pA50: ~6.23 -log10(M)

B18: Pegylated Cys-variant stresscopin-like peptide with NES linker and PEG about 20 kDa SEQ ID NO: 80 (peptide)
peptide: TKFTLSLDVPTNIMNLLFNIAKAKNCRAQAAANAHLMAQI
modifications: NES-PEG (about 20 kDa) on Cys 26; C-terminal amide (-NH2)
- Log DR: 1.75 log10
- pA50: 7.6 -log10(M)

B19: Pegylated Cys-variant stresscopin-like peptide with NES linker and PEG about 20 kDa SEQ ID NO: 84 (peptide)
peptide: TKFTLSLDVPTNIMNLLFNIAKAKNLRAQCAANAHLMAQI
modifications: NES-PEG (about 20 kDa) on Cys 30; C-terminal amide (-NH2)
- Log DR: ~2.84 log10
- pA50: ~6.82 -log10(M)

B20: Pegylated Cys-variant stresscopin-like peptide with NES linker and PEG about 20 kDa SEQ ID NO: 86 (peptide)
peptide: TKFTLSLDVPTNIMNLLFNIAKAKNLRAQAACNAHLMAQI
modifications: NES-PEG (about 20 kDa) on Cys 32; C-terminal amide (-NH2)
- Log DR: 0.82 log10
- pA50: 8.79 -log10(M)

B21: Pegylated Cys-variant stresscopin-like peptide with NES linker and PEG about 20 kDa SEQ ID NO: 76 (peptide)
peptide: TKFTLSLDVPTNIMNLLFNIACAKNLRAQAAANAHLMAQI
modifications: NES-PEG (about 20 kDa) on Cys 22; C-terminal amide (-NH2)
- Log DR: 2.7 log10
- pA50: 6.84 -log10(M)

B22: Pegylated Cys-variant stresscopin-like peptide with NES linker and PEG about 20 kDa SEQ ID NO: 83 (peptide)
peptide: TKFTLSLDVPTNIMNLLFNIAKAKNLRACAAANAHLMAQI
modifications: NES-PEG (about 20 kDa) on Cys 29; C-terminal amide (-NH2)
- Log DR: 1.63 log10
- pA50: 7.91 -log10(M)

B23: Pegylated Cys-variant stresscopin-like peptide with NES linker and PEG about 20 kDa SEQ ID NO: 81 (peptide)
peptide: TKFTLSLDVPTNIMNLLFNIAKAKNLCAQAAANAHLMAQI
modifications: NES-PEG (about 20 kDa) on Cys 27; C-terminal amide (-NH2)
- Log DR: 1.82 log10
- pA50: 7.83 -log10(M)

— patent US20110105397A1, “METHOD FOR TREATING HEART FAILURE WITH STRESSCOPIN-LIKE PEPTIDES” (priority 2009, published 2011)
